Experiments:
[1] = tested on: preformed non-radioactive thrombi in the jugular vein; assay: Rabbit jugular vein thrombosis model: inhibition of thrombus accretion during thrombolysis with t-PA; format: in vivo, New Zealand white rabbits; conditions: FIG. 1; three hours infusion of t-PA alone or along with heparin (0.75 mg/kg)
Method: The experiments are performed with New Zealand white rabbits (weighing 2.3-3.5 kg) anaesthesized by intravenous (marginal ear vein) injection of 30 mg/kg sodium pentobarbital. Through a paramedical incision of the neck, the jugular veins and the right carotid artery are exposed. The right carotid artery is cannulated with a 1.5 mm diameter polyethylene cannula for blood sampling. The two jugular veins are isolated, cleared over a distance of 2 cm, small side branches are ligated. Each jugular segment is emptied of blood and blood flow is temporarily occluded both proximally and distally by two angiostaths, 1.5 cm apart. A 10 cm length 3.0 TiCron braided polyester suture, presoaked in a collagen solution, is introduced lengthwise in the lumen of the isolated jugular vein for a distance of 4 cm to avoid the embolization of the thrombus to be produced. […] The effects of standard heparin and recombinant desulfato hirudin in preventing thrombus extension during thrombolysis with t-PA are assessed as their ability to inhibit the accretion of ^125 I-fibrinogen onto autologous non-radioactive thrombi preformed in the jugular vein of rabbits. […] The ratio of the radioactivity of the thrombus to the circulating fibrinogen radioactivity is used to quantify thrombus size, which is then expressed as μg or ^125 I-fibrinogen accreted onto the thrombus.

[2] = tested on: 125I-fibrinogen labelled thrombi in the jugular vein; assay: Rabbit jugular vein thrombosis model: enhancement of t-PA induced lysis; format: in vivo, New Zealand white rabbits; conditions: 0.5 mg t-PA infused i.v. over 3 hours, mean of n animals
Method: The experiments are performed with New Zealand white rabbits (weighing 2.3-3.5 kg) anaesthesized by intravenous (marginal ear vein) injection of 30 mg/kg sodium pentobarbital. Through a paramedical incision of the neck, the jugular veins and the right carotid artery are exposed. The right carotid artery is cannulated with a 1.5 mm diameter polyethylene cannula for blood sampling. The two jugular veins are isolated, cleared over a distance of 2 cm, small side branches are ligated. Each jugular segment is emptied of blood and blood flow is temporarily occluded both proximally and distally by two angiostaths, 1.5 cm apart. A 10 cm length 3.0 TiCron braided polyester suture, presoaked in a collagen solution, is introduced lengthwise in the lumen of the isolated jugular vein for a distance of 4 cm to avoid the embolization of the thrombus to be produced. 150 μl of citrated rabbit blood containing 5 μl of ^125 I-fibrinogen (approx. 500 000 cpm) is then aspirated in a 1 ml tubercoline syringe containing 50 μl (5 I.U.) of thrombin and 10 μl of CaCl2 (0.25M). […] At the end of the infusion, the thrombi remaining in the vessel are removed and their size is determined by measuring the amount of residual ^125 I-labeled fibrinogen remaining in the thrombi and comparing the results with those of the saline controls.

B1: t-PA: tissue-type plasminogen activator derived from melanoma cell cultures (BioResponse); infused with saline (protein, UniProt P00750 36-562, looked up)
Tissue-type plasminogen …: SYQVICRDEKTQMIYQQHQSWLRPVLRSNRVEYCWCNSGRAQCHSVPVKSCSEPRCFNGGTCQQALYFSDFVCQCPEGFAGKCCEIDTRATCYEDQGISYRGTWSTAESGAECTNWNSSALAQKPYSGRRPDAIRLGLGNHNYCRNPDRDSKPWCYVFKAGKYSSEFCSTPACSEGNSDCYFGNGSAYRGTHSLTESGASCLPWNSMILIGKVYTAQNPSAQALGLGKHNYCRNPDGDAKPWCHVLKNRRLTWEYCDVPSCSTCGLRQYSQPQFRIKGGLFADIASHPWQAAIFAKHRRSPGERFLCGGILISSCWILSAAHCFQERFPPHHLTVILGRTYRVVPGEEEQKFEVEKYIVHKEFDDDTYDNDIALLQLKSDSSRCAQESSVVRTVCLPPADLQLPDWTECELSGYGKHEALSPFYSERLKEAHVRLYPSSRCTSQHLLNRTVTDNMLCAGDTRSGGPQANLHDACQGDSGGPLVCLNDGRMTLVGIISWGLGCGQKDVPGVYTKVTNYLDWIRDNMRP
modifications: melanoma cell derived
notes: infused with saline
125I-fibrinogen accreted onto the thrombus [1]: 52 µg | % lysis ([2]; First set of experiments, hirudin 1 mg/kg): 44% | % lysis ([2]; Second set of experiments, heparin 0.75 mg/kg): 37%

Source: US5126134A, “Pharmaceutically active combination” (Ciba-Geigy Corporation, priority 1988, dated 1992)
